Experimental data reported in article PMC9169624.

Experiments:
[1] = target: Human RPA (hRPA) (Homo sapiens, UniProt P27694;P15927;P35244 1-616;1-270;1-121); test: EMSA; human RPA alone; EMSA: 2.5 nM DNA (5 nM in Fig. S1F); PIFE: 2 nM DNA for Kd; buffer, salt, pH and temperature not in the supplied material; optical tweezers at room temperature; settings: protein: recombinant; copies: 1;1;1; label: 5'-Cy5; single strand
[2] = target: HELB (DNA helicase B);Human RPA (hRPA) (Homo sapiens;Homo sapiens, UniProt Q8NG08;P27694;P15927;P35244 1-1087;1-616;1-270;1-121, |); test: EMSA; HELB supershifts the human RPA-DNA complex; EMSA: 2.5 nM DNA (5 nM in Fig. S1F); PIFE: 2 nM DNA for Kd; buffer, salt, pH and temperature not in the supplied material; optical tweezers at room temperature; settings: protein: recombinant;recombinant; copies: 1;1;1;1; label: 5'-Cy5; single strand
Chain of HELB (DNA helicase B);Human RPA (hRPA) (Q8NG08 whole entry, chain 1 of 4): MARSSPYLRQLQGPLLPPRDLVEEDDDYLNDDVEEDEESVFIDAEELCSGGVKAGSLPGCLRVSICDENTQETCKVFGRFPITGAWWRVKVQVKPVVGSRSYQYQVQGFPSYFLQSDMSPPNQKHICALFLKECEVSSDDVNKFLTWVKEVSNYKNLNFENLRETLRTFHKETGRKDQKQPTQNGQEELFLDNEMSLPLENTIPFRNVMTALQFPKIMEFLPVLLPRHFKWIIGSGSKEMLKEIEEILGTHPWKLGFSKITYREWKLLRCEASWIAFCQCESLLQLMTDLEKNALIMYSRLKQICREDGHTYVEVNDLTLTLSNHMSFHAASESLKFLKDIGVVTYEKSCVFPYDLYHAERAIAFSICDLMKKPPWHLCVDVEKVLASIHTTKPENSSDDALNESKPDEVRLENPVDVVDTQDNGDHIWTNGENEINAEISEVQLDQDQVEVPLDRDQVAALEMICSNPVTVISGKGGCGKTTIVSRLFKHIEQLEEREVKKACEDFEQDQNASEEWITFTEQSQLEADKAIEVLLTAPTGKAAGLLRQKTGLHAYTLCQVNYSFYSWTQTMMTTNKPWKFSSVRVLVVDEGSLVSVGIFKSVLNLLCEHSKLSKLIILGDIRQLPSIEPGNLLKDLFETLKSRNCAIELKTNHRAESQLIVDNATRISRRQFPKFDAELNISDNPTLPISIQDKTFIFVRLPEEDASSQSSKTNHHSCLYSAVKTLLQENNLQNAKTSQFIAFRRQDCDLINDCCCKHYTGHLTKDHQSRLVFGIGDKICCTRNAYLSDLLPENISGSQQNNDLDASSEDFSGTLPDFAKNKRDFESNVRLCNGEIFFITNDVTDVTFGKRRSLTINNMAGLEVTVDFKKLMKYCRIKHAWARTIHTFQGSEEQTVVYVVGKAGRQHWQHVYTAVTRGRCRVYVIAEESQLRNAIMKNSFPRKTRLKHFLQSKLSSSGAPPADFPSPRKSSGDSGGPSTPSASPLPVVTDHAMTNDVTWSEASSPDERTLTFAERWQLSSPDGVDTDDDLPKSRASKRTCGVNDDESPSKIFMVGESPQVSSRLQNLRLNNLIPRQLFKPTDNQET
Chain of HELB (DNA helicase B);Human RPA (hRPA) (P27694 whole entry, chain 2 of 4): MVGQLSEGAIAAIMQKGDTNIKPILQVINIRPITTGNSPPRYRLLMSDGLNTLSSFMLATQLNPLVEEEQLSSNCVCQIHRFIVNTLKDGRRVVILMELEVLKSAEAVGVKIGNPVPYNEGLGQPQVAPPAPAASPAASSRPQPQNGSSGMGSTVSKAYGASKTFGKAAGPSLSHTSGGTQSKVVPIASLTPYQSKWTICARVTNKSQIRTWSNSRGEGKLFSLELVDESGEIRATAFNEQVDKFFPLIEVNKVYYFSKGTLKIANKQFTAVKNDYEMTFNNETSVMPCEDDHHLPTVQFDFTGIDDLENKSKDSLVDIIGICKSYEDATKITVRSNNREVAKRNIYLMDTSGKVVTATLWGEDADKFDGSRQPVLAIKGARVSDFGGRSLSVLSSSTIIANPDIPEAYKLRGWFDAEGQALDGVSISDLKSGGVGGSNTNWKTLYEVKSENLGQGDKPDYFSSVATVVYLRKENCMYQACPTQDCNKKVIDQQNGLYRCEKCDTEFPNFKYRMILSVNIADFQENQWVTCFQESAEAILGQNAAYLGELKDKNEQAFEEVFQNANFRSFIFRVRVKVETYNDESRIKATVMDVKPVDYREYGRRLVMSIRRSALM
Chain of HELB (DNA helicase B);Human RPA (hRPA) (P15927 whole entry, chain 3 of 4): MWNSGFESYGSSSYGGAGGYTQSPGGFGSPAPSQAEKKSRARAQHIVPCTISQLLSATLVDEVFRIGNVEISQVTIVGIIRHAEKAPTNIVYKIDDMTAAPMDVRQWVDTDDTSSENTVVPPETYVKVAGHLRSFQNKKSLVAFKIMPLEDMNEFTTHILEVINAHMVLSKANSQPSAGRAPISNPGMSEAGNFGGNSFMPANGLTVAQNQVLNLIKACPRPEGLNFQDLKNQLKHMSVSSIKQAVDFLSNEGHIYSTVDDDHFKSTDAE
Chain of HELB (DNA helicase B);Human RPA (hRPA) (P35244 whole entry, chain 4 of 4): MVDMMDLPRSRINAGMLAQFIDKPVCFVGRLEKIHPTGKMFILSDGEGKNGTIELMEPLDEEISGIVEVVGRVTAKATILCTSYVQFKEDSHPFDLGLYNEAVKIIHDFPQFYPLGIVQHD

[3] = target: HELB (DNA helicase B) (Homo sapiens, UniProt Q8NG08 1-1087); test: PIFE fluorescence; EMSA: 2.5 nM DNA (5 nM in Fig. S1F); PIFE: 2 nM DNA for Kd; buffer, salt, pH and temperature not in the supplied material; optical tweezers at room temperature; settings: protein: recombinant; label: 3'-Cy3; single strand
Chain of HELB (DNA helicase B) (Q8NG08 whole entry): as the sequence (Q8NG08 whole entry, chain 1 of 4) above

Chain of Human RPA (hRPA) (P27694 whole entry, chain 1 of 3): as the sequence (P27694 whole entry, chain 2 of 4) above
Chain of Human RPA (hRPA) (P15927 whole entry, chain 2 of 3): as the sequence (P15927 whole entry, chain 3 of 4) above
Chain of Human RPA (hRPA) (P35244 whole entry, chain 3 of 3): as the sequence (P35244 whole entry, chain 4 of 4) above

Row | Binder | binding result [1] | binding result [2] | Kd [3]
1 | GCTTGCTAGGACGGATCGCTCGAGG (ssDNA) [EMSA 25mer] | binds | binds | 
2 | TTTTTTTTTTTTTTTTTTTTTTTTTTTTTT (ssDNA) [poly(dT) 30mer] |  |  | ~5 nM
